Source: patent publication US20220047716A1, “COMBINATION THERAPIES WITH ANTI-FOLATE RECEPTOR ANTIBODY CONJUGATES” (SUTRO BIOPHARMA, INC., priority 2018, published 2022)

Target: human folate receptor alpha (hFolRα) on cells (human) (UniProt P15328)
Assay: cell-based or functional assay

Chain of human folate receptor alpha (hFolRα) on cells (human) (P15328 25-234 limits assumed): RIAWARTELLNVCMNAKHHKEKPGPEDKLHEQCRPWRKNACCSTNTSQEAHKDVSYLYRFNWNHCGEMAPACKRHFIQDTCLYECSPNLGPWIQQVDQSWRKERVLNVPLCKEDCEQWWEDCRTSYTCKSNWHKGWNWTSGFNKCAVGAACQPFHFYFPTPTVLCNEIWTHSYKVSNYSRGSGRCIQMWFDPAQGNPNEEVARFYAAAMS

Substance: ADC Molecule 21 (IMGN853 surrogate, Mov19-sulfo-SPDB-DM4) (antibody)
- fold shift of cell killing EC50 on Igrov1 cells on addition of naked antibody: 3 fold
